Our source for the IC50 values is patent US20250186597A1, “TARGETED IMMUNE ACTIVATION WITH IL-18 IMMUNOCYTOKINES” (BRIGHT PEAK THERAPEUTICS AG, priority 2023, published 2025).

For the assay, the system named is parental PD-1negative NK-92 cells. Description: IL-18BP mediated inhibition of IFN gamma secretion in parental PD-1 negative NK-92 cells (Example 18). The conditions noted are these: IL-18BP-mediated inhibition of IFNγ secretion, IL-18 analyte 1 nM. It counts as cell-based, human. As for the experimental part:
To characterize the resistance of anti-PD1-IL18 immunocytokines (IC) on PD-1 positive cells, the NK-92 cell line was used to generate a PD-1 expressing cell line and furthermore, to measure the inhibition of IFN[…] release upon incubation with IL-18 variants and ICs in the presence of increasing quantities of human IL-18BP.
On the day of experiment, parental PD-1^negative and PD-1^positive transduced cells were harvested and washed with PBS 1× and resuspended in medium (w/o IL-2) containing 1 ng/ml of recombinant human Interleukin-12 (SinoBiologicals, Cat #CT011-H08H). After counting, cells were seeded at 100 000 cells/well in a 384 well culture plate and incubated at 37° C./5% CO2. When indicated, cells were preincubated with anti-PD-1 antibody LZM-009 at 17 uM during 30 min at 37° C. […]
After 16-20 h incubation at 37° C./5% CO2, 5 μl of supernatant were carefully transferred to a 384 microwell OptiIPlate (Perkin Elmer; Cat #6007270) and Interferon-gamma (IFNγ) levels measured using the Human IFNγ AlphaLISA Assay Kit (Perkin Elmer, Cat #AL217C). […] AlphaLISA signal was then measured on an Enspire plate reader (Perkin Elmer) using 680 and 615 nm as excitation and emission wavelengths respectively. Half maximal inhibitory concentration (IC50) was calculated based on a variable slope, four parameter analysis using GraphPad PRISM software.

B1: SEQ ID NO: 30: IL-18 polypeptide: E6K, V11I, C38A, K53A, T63A, C76A, C127A (protein)
chain: YFGKLKSKLSIIRNLNDQVLFIDQGNRPLFEDMTDSDARDNAPRTIFIISMYADSQPRGMAVAISVKCEKISTLSAENKIISFKEMNPPDNIKDTKSDIIFFQRSVPGHDNKMQFESSSYEGYFLAAEKERDLFKLILKKEDELGDRSIMFTVQNED
Regarding B1, the IC50 was determined as 110 nM.
